According to the RNAGym collection of RNA variant scans (doi:10.7554/elife.80360):

B1: HDV Ribozyme (parent)
chain: GGCCGGCAUGGUCCCAGCCUCCUCGCUGGCGCCGGCUGGGCAACAUUCCGAGGGGACCGUCCCCUCGGUAAUGGCGAAUGGGACCCA

Variants of: B1
Assay: self-cleavage, relative activity (ratio to wild type); higher = more cleavage; co-transcriptional

Variant	self-cleavage
C4G C44G	0.0449
C4G C75U	0.0396
C4U C63U	0.682
C4U C63G	0.396
C4G G82U	0.0421
C4U C44G	0.214
C4G U47C	0.346
C4G A78G	0.0923
C4G U37A	0.0462
C4G U37G	0.0489
C4U A78U	0.155
C4U A78G	0.375
C4G C18U	0.0282
C4G G59C	0.481
C4G A71G	0.277
C4G A71C	0.192
C4G C57G	0.489
C4G C57A	0.374
C4G G68A	0.309
C4U C61U	0.717
C4U C61A	0.978
C4U G6U	0.219
C4A G73U	0
C4A G54C	0.284

Variant	self-cleavage
C4A G54A	0.268
C4A G54U	0.32
C4A G29A	0.0244
C4U C21U	0.0678
C4U A42G	0.138
C4U A42C	0.0475
C4A U37G	0
C4G G6U	0.0237
C4G G6A	0
G5A A71C	0.0426
G5A A71G	0
C4U G52A	0.443
C4U G52U	0.831
C4A G53U	0.174
C4A G53C	0.344
C4A G53A	0.201
C4U C41U	0.567
C4U G74C	0.0791
C4U G74A	0.197
C4G G28A	0
C4G G28U	0
C4G A8G	0.346
C4A G74U	0.0583
C4A G50U	0.372

Variant	self-cleavage
C4U C49A	0.332
C4U C49G	0.604
C4U C49U	0.789
C4G C62G	0.123
C4G U12C	0.0665
C4G U12G	0.18
C4A U47C	0.293
C4A U47A	0.156
C4G A43G	0
C4G A43C	0.0519
C4A G59C	0.302
C4A G59A	0.346
C4U G10C	0.63
G5A A42C	0.135
G5A A42U	0.111
G5A A42G	0
C4G C86A	0.554
C4G C86G	0.249
C4G G25A	0.0256
C4G G25C	0
C4U C24A	0.0583
C4U C24G	0.0678
C4U C14U	1.04
C4U C14A	0.519

Variant	self-cleavage
C4G G5U	0.0545
C4G G5A	0.0519
C4U C19G	0.0268
C4U C19U	0.0665
C4A G17A	0.0396
C4A G17U	0.0292
C4G A77G	0.172
C4U U60C	0.872
C4A G40A	0.214
C4A G40U	0.199
G5A A56C	0.107
C4U G73C	0.242
C4U G73U	0.138
C4U G11A	0.225
C4U G11C	0
C4G G31U	0.0282
C4G G31A	0.0639
C4G U46A	0.0573
C4A U69G	0.285
C4A G55A	0.3
C4A G55C	0.31
C4U A56C	0.522
C4A G76U	0.554
C4A G76A	0.208

Variant	self-cleavage
C4A G76C	0.253
C4A U12A	0.0712
C4A U12G	0.0536
C4A U12C	0.095
C4G A42G	0
G5A C7A	0
G5A C7U	0.0978
C4G G73U	0.086
C4U G80U	0.0683
C4U G80C	0.157
C4A G31U	0
C4G G74C	0.0386
C4G G74U	0.111
C4U U27C	0.166
C4G C64A	0.219
C4G A70G	0.59
C4U U23A	0.727
C4U U23G	0.302
C4U A16C	0.434
C4G U79A	0.0536
C4G U79C	0.13
C4G U79G	0
C4G G39U	0.0346
C4U C85U	0.665

Variant	self-cleavage
C4U C85G	0.935
C4G U72A	0.0437
C4G U72G	0.0519
C4U C13U	0.516
C4G C84U	0.249
C4G C84G	0
C4U G17U	0.136
C4U G17A	0.332
C4U A71C	0.499
C4A G39A	0.119
C4A G39C	0
C4G A45U	0.161
C4G A45G	0.201
C4G G54C	0.213
C4U C64G	0.538
C4U C86G	0.831
C4U C86A	0.875
C4U U47G	0.88
C4U U47C	0.554
C4G C15A	0.142
C4G C15U	0.277
C4U A70U	0.554
C4U G54C	0.795
C4U C15A	0.302

Variant	self-cleavage
C4U C15U	0.731
C4G U65A	0.525
C4A U23C	0.0978
C4A U23A	0.309
C4G G55C	0.185
C4G G55U	0.376
C4G A16G	0.453
C4G G38U	0.0287
C4G G38A	0
C4U U9A	0.739
C4U U9G	0.782
C4U U9C	0.727
C4U G82U	0.119
C4U G82A	0.0959
C4U G82C	0.0875
C4U A83G	0.464
C4G U60C	0.0875
C4G U60G	0.213
C4G U60A	0.332
C4A U72G	0.111
C4A U72A	0.0723
C4A G35A	0.0733
C4A G6C	0.0594
